These results are taken from patent US20230075633A1.

Test [1] has as its target human CD3 (human) (UniProt P07766). In words: flow cytometry on Jurkat cells. A general note: Flow cytometry measures light scatter and fluorescence of single cells or particles in a stream.
The target in the next test is human CEA (human) (UniProt P06731). As to the kind of experiment: cell-based or functional assay.
In test [2] the target is human CD3 (human) (UniProt P07766). In words: flow cytometry on human PBMC (ND 12).
human CD3 (human), sequence (P07766 23-207): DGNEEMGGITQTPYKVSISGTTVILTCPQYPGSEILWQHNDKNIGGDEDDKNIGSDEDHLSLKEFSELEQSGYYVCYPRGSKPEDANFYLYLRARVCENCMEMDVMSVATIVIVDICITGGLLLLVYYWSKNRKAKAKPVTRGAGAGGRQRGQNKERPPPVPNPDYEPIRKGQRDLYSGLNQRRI

human CEA (human), sequence (P06731 35-702, form in doubt): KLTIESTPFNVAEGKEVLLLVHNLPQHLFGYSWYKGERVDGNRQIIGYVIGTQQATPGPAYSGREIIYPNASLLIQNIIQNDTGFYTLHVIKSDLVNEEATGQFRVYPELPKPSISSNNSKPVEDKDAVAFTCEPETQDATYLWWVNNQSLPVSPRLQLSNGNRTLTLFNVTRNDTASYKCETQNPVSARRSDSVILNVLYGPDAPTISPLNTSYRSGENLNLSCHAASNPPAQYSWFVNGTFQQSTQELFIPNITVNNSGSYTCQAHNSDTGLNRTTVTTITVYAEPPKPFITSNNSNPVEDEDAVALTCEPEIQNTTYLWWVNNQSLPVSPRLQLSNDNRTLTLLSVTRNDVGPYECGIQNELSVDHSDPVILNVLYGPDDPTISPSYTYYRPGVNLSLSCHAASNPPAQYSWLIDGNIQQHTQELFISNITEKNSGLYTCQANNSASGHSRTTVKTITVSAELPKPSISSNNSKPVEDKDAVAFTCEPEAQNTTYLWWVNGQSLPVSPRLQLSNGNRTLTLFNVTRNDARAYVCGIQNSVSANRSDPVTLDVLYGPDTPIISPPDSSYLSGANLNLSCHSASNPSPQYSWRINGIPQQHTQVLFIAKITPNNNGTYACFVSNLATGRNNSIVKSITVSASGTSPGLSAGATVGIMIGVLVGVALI

Usually EC50 stands for the midpoint of the concentration-response curve. Consider Roche CEA-TCB (bispecific antibody), for which the EC50 with human CD3 (human) [1] turned out to be 0.207 nM. Also, in the test with human CEA (human), the cytolysis of LS174T cells by PBMC: EC50 worked out at 0.005 nM; the cytolysis of MKN-45 cells by PBMC, E/T 20:1, 48 h: EC50 against that of CEA/CD3OPT1a3b2b1 BsAb was 50 fold; the cytolysis of MKN-45 cells by PBMC: EC50 amounted to 0.001 nM. Besides, in the test with human CD3 (human) [2], the EC50 stood at 0.34 nM.
